Molecular target: CD19 antigen on CD19 positive RS4;11 and Raji cells (human) (UniProt P15391)
Assay: cell-based or functional assay

Chain of UniProt P15391 (P15391 20-556): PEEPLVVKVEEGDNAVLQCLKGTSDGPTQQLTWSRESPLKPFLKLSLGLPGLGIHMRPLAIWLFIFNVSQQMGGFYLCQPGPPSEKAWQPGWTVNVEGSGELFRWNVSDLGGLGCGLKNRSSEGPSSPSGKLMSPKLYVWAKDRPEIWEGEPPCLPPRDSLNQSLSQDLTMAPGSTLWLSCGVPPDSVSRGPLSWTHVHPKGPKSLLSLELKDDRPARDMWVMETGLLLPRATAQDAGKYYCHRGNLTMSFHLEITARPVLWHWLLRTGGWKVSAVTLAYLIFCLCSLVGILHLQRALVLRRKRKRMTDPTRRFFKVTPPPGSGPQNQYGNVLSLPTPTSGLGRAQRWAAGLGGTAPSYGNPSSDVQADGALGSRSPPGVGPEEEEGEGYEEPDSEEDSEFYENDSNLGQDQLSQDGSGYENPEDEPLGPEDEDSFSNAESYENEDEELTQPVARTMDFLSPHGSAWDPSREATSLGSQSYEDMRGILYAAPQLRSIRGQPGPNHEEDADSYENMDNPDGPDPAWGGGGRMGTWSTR

Question: How did the cytotoxicity, RS4;11 cells, CAR19 T cell:tumor cell 5:1, donor 1, 4 h co-culture (calcein AM/PI flow cytometry) turn out when FMC63 artificial CAR19 was run?
Answer: 45.8%

Question: And the cytotoxicity, RS4;11 cells, CAR19 T cell:tumor cell 5:1, donor 2, 4 h co-culture (calcein AM/PI flow cytometry)?
Answer: 65.6%

Question: What about the cytotoxicity, RS4;11 cells, CAR19 T cell:tumor cell 10:1, donor 1, 4 h co-culture (calcein AM/PI flow cytometry) of the same substance?
Answer: 55.8%

Question: What about the cytotoxicity, RS4;11 cells, CAR19 T cell:tumor cell 10:1, donor 2, 4 h co-culture (calcein AM/PI flow cytometry) of the same substance?
Answer: 77.1%

Question: What about the cytotoxicity, Raji cells, CAR19 T cell:tumor cell 1:1, donor 1, 4 h co-culture (calcein AM/PI flow cytometry) of the same substance?
Answer: 4.17%

Question: What about the cytotoxicity, Raji cells, CAR19 T cell:tumor cell 1:1, donor 2, 4 h co-culture (calcein AM/PI flow cytometry) of the same substance?
Answer: 46.4%

Question: And the cytotoxicity, Raji cells, CAR19 T cell:tumor cell 2:1, donor 1, 4 h co-culture (calcein AM/PI flow cytometry)?
Answer: 25.3%

Question: What about the cytotoxicity, Raji cells, CAR19 T cell:tumor cell 2:1, donor 2, 4 h co-culture (calcein AM/PI flow cytometry) of the same substance?
Answer: 59.9%

Question: And the percentage of CD19 positive RS4;11 cells remaining after 24 h co-culture with CAR-T cells?
Answer: 45.1%

Question: And the percentage of CD19 positive Raji cells remaining after 24 h co-culture with CAR-T cells?
Answer: 7.42%

— patent US20210069244A1
